Experiments:
[1] = molecular target: T1, human GUCY2C-rCD4 fusion protein (Homo sapiens (human); Rattus norvegicus, biotinylated (site not given)); test: SPR (Sierra SPR-32), scFv on protein G, antigen 800-12.5 nM, 25 C
T1 construct: GUCY2C conjugated/fused with CD4; also called Hu-GUCY2C-rCD4; human GUCY2C recombinant antigen
Method: Furthermore, the affinity to the GUCY2C antigen of the 18 kinds of scFvs produced in Example 1 was measured by SPR (Surface plasmon resonance) analysis.
SPR assay was performed with association time 2 min and dissociation time 10 min under the condition of 25 degrees of Celsius using MASS2 (Sierra SPR-32; Bruker). The data were analyzed with Software R3.

[2] = molecular target: T1, human GUCY2C-rCD4 fusion protein; test: ELISA (DELFIA), antigen on streptavidin plate, scFv culture solution, Eu-anti-tag Ab
Method: (§1) More specifically, GUCY2C-rCD4 fusion protein, in which the prepared human GUCY2C (SEQ ID NO: 112), monkey GUCY2C (SEQ ID NO: 114), and mouse GUCY2C (SEQ ID NO: 113) were fused, respectively, was bound to a place coated with streptavidin in a Nunc Maxisorp™96 well plate. After removing all the synthetic proteins not combined with washing buffer, the anti-GUCY2C scFV obtained in the culture solution was incubated in each well. After that, the affinity was measured by reading signals DELFIA enhanced using Eu-anti-tag Ab.

[3] = molecular target: T2, monkey GUCY2C-rCD4 fusion protein (Macaca fascicularis (crab-eating …, limits assumed)); test: as above
T2 construct: Prepared by the same method as the human antigen; also called Cy-GUCY2C-rCD4; monkey GUCY2C recombinant antigen
T2 chain: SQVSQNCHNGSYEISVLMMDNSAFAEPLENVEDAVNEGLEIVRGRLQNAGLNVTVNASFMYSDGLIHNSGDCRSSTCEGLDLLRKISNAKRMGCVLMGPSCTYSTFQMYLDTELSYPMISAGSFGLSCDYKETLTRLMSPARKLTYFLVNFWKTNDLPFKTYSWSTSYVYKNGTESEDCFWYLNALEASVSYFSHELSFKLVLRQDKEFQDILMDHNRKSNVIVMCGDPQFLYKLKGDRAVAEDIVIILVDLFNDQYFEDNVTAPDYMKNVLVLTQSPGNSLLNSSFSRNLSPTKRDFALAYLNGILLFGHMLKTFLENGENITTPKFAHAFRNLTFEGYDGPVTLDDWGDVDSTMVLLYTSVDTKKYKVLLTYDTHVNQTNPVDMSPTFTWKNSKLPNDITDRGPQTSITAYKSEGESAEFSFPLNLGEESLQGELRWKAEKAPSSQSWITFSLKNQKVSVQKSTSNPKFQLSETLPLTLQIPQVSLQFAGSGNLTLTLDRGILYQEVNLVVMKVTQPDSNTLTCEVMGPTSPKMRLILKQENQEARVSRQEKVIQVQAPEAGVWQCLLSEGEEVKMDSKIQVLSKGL
Method: as §1

[4] = molecular target: T3, mouse GUCY2C-rCD4 fusion protein (Mus musculus (house mouse); Rattus …, limits assumed); test: as above
T3 construct: Prepared by the same method as the human antigen; also called Mu-GUCY2C-rCD4; murine GUCY2C recombinant antigen
T3 chain: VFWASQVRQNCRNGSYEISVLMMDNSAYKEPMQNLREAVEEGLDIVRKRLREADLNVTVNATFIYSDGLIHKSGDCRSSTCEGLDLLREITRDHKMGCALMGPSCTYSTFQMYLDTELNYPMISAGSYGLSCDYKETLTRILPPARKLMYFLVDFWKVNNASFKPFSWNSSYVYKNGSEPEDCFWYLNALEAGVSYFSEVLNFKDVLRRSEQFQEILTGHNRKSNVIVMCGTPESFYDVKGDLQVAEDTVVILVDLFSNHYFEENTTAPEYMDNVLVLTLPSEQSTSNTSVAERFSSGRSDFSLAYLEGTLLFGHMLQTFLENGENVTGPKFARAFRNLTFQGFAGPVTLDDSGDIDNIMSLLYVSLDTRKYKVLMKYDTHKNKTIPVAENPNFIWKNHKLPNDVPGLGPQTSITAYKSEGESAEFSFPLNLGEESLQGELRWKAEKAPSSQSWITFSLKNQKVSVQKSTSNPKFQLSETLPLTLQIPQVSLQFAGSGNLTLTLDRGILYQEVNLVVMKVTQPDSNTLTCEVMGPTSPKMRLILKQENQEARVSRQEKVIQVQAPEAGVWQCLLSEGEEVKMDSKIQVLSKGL
Method: as §1

[5] = molecular target: T1, human GUCY2C-rCD4 fusion protein; test: ranking ELISA (DELFIA), 5 nM scFv on anti-FLAG, biotinylated antigen, streptavidin-Eu
Method: (§2) More specifically, after coating an anti-FLAG antibody in a MaxiSorb plate and binding by adding scFvs obtained previously, the remaining scFvs were removed by a washing process. Here, a biotinylated human-GUCY2C-rCD4 protein was incubated and combined, and then the affinity to the antigen was measured by reading signals by DELFIA enhancement with color development through streptavidin-Europlum.

[6] = molecular target: T1, human GUCY2C-rCD4 fusion protein; test: ranking ELISA (DELFIA), 50 nM scFv on anti-FLAG, biotinylated antigen, streptavidin-Eu
Method: as §2

B1: scFv A07 (scFv)
scFv: QVQLQESGPGLVKPSETLSLTCTVSGGSISSYYWSWIRQPPGKGLEWIGSIYYSGSTNYNPSLKSRVTISRDKSKNQLFLKLNSMTAADTAVYYCARDVWGSGQSFDSWGQGTLVTVSSGGGGSGGGGSGGGASNFMLTQPHSVSESPGKTVTISCTRSSGSIASNYVQWYQQRLGSSPTTVIYEHSRRPSGVPDRFSASIDSSSNSASLTISGLKTEDEADYYCQSYDVSNRVFGGGTKLTVL
notes: also called 2427_01_C02
[1]
  Kd: 3.73 µM
[2]
  Binding ELISA signal: 79000
[3]
  Binding ELISA signal: 51100
[4]
  Binding ELISA signal: 17100
[5]
  Affinity Ranking ELISA (5 nM) signal: 4740
[6]
  Affinity Ranking ELISA (50 nM) signal: 27700
